Drawing on publication PMC12594171, “DKK3-LRP1 complex and a chemical inhibitor regulate Aβ clearance in models of Alzheimer’s disease” (Science Advances, 2025), this text covers percent reduction of Aβ42 binding to mLRPIV for one substance.

In the test the target is mLRPIV-HA, stably expressed in SH-SY5Y. Briefly: co-IP + ELISA; SH-SY5Y cells stably expressing mLRPIV-HA incubated with Aβ42 and 1 to 200 nM DKK1 or DKK3; mLRPIV-HA precipitated with anti-HA affinity gel; Aβ42 in the eluate by ELISA.

Chain of DKK3-Flag (Q9UBP4 22-350): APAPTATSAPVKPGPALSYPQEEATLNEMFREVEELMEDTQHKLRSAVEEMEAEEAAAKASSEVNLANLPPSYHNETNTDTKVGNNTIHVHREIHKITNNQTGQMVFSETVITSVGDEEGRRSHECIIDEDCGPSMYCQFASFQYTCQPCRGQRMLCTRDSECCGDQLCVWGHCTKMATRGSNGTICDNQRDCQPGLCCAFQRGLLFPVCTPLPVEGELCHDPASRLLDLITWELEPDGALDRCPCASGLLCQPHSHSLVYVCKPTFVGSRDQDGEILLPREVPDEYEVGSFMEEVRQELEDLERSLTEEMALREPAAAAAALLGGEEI

As for “DKK3-Flag (from UniProt Q9UBP4 22-350) (ligand)”, the percent reduction of Aβ42 binding to mLRPIV at 20 nM DKK3 was 60%.
